The values below come from patent publication US6346249 (LUDWIG INSTITUTE FOR CANCER RESEARCH, dated 2002).

Where a chain is given by its changes, count along the chain named.

T1: recombinant human A33 antigen (human, UniProt Q99795 22-233, limits assumed)
T1 construct: also called human antigen A33; immobilized recombinant human A33
T1 sequence (looked up): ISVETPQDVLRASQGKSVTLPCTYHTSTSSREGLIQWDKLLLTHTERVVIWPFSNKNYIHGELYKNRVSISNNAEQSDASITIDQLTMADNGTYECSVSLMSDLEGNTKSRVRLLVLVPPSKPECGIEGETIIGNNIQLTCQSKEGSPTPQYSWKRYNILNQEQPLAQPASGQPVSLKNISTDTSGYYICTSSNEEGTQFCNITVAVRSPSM

B1: rabbit Fab 1 (rabbit VH1, VL1; chimeric rabbit/human Fab) (Fab, V domains shown)
VH: QQQVMESGGGLVTLGGSLTLTCKASGIDFSNNGISWVRQAPGKGLEWILYIYPDYGSTDYASWVNGRFTISLDNAQNTVFLQMTSLTAADTATYFCARDRGAYAGSRGTRLDLWGQGTLVTVSS
VL: EFDMTQTPPSLSASVGETVRIRCLASEFLFNGVSWYQQKPGKPPKFLISGASNLESGVPPRFSGSGSGTDYTLTIGGVQAEDVATYYCLGGYSGSSGLTFGAGTNVEIK
notes: Soluble Fab from E. coli; also called rabbit 1; rabbit clone 1
B2: humanized Fab B (human VLB and human VHB) (Fab, V domains shown)
VH: EVQVMESGGGLVKPGGSLRLSCAASGIGFSHYGISWVRQAPGKGLEWVSYIYPNYGSVDYASSVNGRFTISLDNAQNSLYLQMNSLRAEDTAVYFCARDRGYYSGSRGTRLDLWGQGTLVTVSS
VL: ELQMTQSPSSLSASVGDRVTITCLASEFLFNGVSWYQQKPGKVPKFLIYGASNLESGVPSRFSGSGSGTDFTLTISSLQPEDVATYYCLGGYSGSSGLTFGGGTKVEIK
B3: humanized Fab C (human VLC and human VHC) (Fab, V domains shown)
VH: B2 VH with G28D, F95Y
VL: B2 VL with V43A
B4: humanized Fab D (human VLD and human VHD) (Fab, V domains shown)
VH: B2 VH with G28D
VL: B2 VL with F71Y
B5: humanized Fab F (human VLF and human VHF) (Fab, V domains shown)
VH: B2 VH with F95Y
VL: B2 VL with V43A
B6: humanized Fab A (human VLA and human VHA) (Fab, V domains shown)
VH: B2 VH with G28D, L72F, F95Y
VL: B2 VL with F71Y
B7: humanized Fab E (human VLE and human VHE) (Fab, V domains shown)
VH: B2 VH with I27F, G28T, L72F, L79V, F95Y
VL: B2 VL with V43A, F46L, F71Y

The first experiment addresses T1, recombinant human A33 antigen. The experiment in a line: SPR (Biacore), recombinant human A33 immobilized on CM5 chip; Kd calculated from koff/kon. As for the experimental part: (§1) The binding strength was determined by surface plasmon resonance in accordance with Rader, et al., Proc. Natl. Acad. Sci USA 95(15): 8910–8915 (1998), incorporated by reference. Briefly, the determination of association ($kon$) and dissociation ($koff$) rate constants for binding of rabbit and humanized Fab to recombinant human A33 antigen was performed on a Biacore instrument (Biacore AB, Uppsala, Sweden). A CM5 sensor chip (Biacore AB) was activated for immobilization with Nhydroxysuccinimide and N-ethyl-N'-(3-dimethylaminopropyl)carbodiimide according to standard methods. Recombinant human A33 antigen was coupled at a low density to the surface by injection of 30 µl to 40 µl of a 1 ng/µl sample in 10 mM sodium acetate (pH 3.5). Approximately 500 resonance units were immobilized. Subsequently, the sensor chip was deactivated with 1 M ethanolamine hydrochloride (pH 8.5). Binding of Fab to immobilized A33 antigen was studied by injection of Fab at 5 different concentrations ranging from 75 nM to 200 nM. PBS was used as the running buffer. The sensor chip was regenerated with 20 mM HCl and remained active for at least 50 measurements. The $kon$ and $koff$ values were calculated using Biacore AB evaluation software. The equilibrium dissociation constant K_d was calculated from $koff/kon$.
Association ($kon$) and dissociation ($koff$) rate constant were determined using surface plasmon resonance. Human antigen A33 was immobilized on the sensor chip. The dissociation constant (K_d) was calculated from […].
One may read the Kd as a measure of binding affinity in units of concentration. As to B1, the Kd was 0.39 nM.
Still for that read-out and setting: then B2, with 1.7 nM; and B3, with 18.1 nM.
Still for that read-out and setting: under B4 stands 29.2 nM; under B5, 3.5 nM.
The same measure, in the same setting: under B6 stands 5.6 nM; under B7, 7.7 nM.

The next experiment shares this target. The experiment in a line: SPR (Biacore), recombinant human A33 immobilized on CM5 chip, Fab injected at 75-200 nM. The method, then: as §1
Figure 6: FIG. 6 depicts representative Biacore sensorgrams obtained for the binding of rabbit Fab 1 to immobilized human A33 antigen. For association, Fab were injected at 5 different concentrations (200 nM, 150 nM, 125 nM, 100 nM, 75 nM, top to bottom) between t=125 and t=370 seconds, using a flow rate of 5 µl/minute. For dissociation, the flow rate was increased to 50 µl/minute resonance units (RU).
In general terms: Surface plasmon resonance follows binding to a sensor surface in real time, without labels.
For orientation: koff means a measure of how fast the partners let go of each other. One may read the kon as the second-order rate constant of association. Take B1: the off-rate (koff) turned out to be 0.00012 s⁻¹ and the kon turned out to be 307000 M⁻¹ s⁻¹.
Taken in the same sequence, the figures for B2 were 0.00061 s⁻¹ and 352000 M⁻¹ s⁻¹.
Taken in the same sequence, the figures for B3 were 0.00197 s⁻¹ and 109000 M⁻¹ s⁻¹.
Taken in the same sequence, the figures for B4 were 0.0019 s⁻¹ and 65000 M⁻¹ s⁻¹.
Regarding B5, the koff came to 0.00068 s⁻¹ and the on-rate constant (kon) came out at 192000 M⁻¹ s⁻¹.
Taken in the same sequence, the figures for B6 were 0.00059 s⁻¹ and 105000 M⁻¹ s⁻¹.
The corresponding values for B7 are 0.0005 s⁻¹ and 65000 M⁻¹ s⁻¹.
